One molecule from PMC5291256 (Nucleic Acids Research, 2016) can be followed below.

As usually defined, the stoichiometry N is the number of molecules, sites or subunits per partner or assembly.

For the experiment, the target named is T1, SFR1^dN202 mutant protein (mouse, UniProt Q8BP27 203-319).
T1 sequence (looked up): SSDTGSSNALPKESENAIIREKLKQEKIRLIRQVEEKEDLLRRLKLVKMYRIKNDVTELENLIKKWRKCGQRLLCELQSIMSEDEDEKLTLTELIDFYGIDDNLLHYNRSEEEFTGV
Kind of experiment: AUC.

B1: mouse SWI5 (natural protein, UniProt Q8K3D3 1-89, looked up)
chain: MIDENNDVSEEALSSDIKKLKEKHDMLDKEISQLIAEGYRVIELEKHISLLHEYNDIKDVSQMLLGKLAVTRGVTTKELYPDFDLNLND
Regarding B1, the “stoichiometry N” value was 1.
